Measured values published in patent US20100036095A1.

Biological target: C8/C9 (complement components C8 and C9 of normal human serum, in the assembling membrane attack complex) (human), P07357
Experiment: cell-based or functional assay

C8/C9 (complement components C8 and C9 of normal human serum, in the assembling membrane attack complex) (human), P07357, sequence (P07357 31-584 limits assumed, chain 1 of 4): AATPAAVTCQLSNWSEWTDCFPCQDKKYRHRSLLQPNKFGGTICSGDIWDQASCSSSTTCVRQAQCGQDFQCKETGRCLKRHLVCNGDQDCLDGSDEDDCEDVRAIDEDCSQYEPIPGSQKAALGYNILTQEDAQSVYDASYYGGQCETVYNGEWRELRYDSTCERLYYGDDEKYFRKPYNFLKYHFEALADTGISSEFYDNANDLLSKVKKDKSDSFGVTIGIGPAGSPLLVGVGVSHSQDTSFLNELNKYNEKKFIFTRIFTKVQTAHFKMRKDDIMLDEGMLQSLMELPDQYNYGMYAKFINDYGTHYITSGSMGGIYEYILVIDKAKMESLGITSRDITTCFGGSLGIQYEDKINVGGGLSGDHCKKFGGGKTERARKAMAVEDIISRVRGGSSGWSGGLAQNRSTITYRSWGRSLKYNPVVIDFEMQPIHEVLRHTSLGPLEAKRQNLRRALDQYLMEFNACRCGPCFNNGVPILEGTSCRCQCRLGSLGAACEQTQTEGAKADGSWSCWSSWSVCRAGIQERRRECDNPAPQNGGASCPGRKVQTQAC
C8/C9 (complement components C8 and C9 of normal human serum, in the assembling membrane attack complex) (human), P07357, sequence (P07358 55-591 limits assumed, chain 2 of 4, further chain): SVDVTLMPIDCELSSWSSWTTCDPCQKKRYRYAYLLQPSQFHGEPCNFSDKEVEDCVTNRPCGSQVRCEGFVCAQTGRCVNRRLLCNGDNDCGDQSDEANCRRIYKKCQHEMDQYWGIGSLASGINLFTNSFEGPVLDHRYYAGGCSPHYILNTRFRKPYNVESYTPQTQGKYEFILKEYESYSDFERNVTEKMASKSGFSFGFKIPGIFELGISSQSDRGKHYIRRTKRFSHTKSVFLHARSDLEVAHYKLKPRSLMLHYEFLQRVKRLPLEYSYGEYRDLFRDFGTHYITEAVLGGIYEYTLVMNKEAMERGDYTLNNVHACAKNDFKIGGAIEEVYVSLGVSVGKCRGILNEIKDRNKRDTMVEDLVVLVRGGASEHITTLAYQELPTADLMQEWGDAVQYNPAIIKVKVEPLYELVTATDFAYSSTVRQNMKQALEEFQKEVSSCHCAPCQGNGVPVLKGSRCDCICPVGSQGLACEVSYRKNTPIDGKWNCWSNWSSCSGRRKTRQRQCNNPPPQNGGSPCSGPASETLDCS
C8/C9 (complement components C8 and C9 of normal human serum, in the assembling membrane attack complex) (human), P07357, sequence (P07360 21-202 limits assumed, chain 3 of 4, further chain): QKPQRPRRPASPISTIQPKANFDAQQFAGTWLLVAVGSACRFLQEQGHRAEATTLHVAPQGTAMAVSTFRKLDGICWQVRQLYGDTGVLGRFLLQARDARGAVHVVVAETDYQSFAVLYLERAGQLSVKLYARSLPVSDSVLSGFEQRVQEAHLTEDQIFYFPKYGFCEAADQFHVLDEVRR
C8/C9 (complement components C8 and C9 of normal human serum, in the assembling membrane attack complex) (human), P07357, sequence (P02748 22-559 limits assumed, chain 4 of 4, further chain): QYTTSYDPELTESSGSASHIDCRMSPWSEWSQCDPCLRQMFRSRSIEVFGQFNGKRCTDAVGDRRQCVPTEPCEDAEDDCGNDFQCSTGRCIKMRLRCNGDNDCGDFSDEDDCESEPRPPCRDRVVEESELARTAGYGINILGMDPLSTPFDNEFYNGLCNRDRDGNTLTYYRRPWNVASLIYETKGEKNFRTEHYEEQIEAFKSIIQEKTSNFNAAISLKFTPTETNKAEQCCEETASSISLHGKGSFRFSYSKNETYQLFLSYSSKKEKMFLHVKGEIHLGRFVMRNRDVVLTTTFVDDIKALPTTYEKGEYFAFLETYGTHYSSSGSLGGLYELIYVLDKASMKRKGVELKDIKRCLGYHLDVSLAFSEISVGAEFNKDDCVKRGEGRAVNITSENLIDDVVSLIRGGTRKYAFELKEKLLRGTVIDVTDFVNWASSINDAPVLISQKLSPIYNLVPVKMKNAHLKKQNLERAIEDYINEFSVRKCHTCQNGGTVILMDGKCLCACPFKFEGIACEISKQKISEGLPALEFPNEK

B1: CR2-CD59 fusion protein containing CD59 T51A/S20A (protein)
chain: ISCGSPPPILNGRISYYSTPIAVGTVIRYSCSGTFRLIGEKSLLCITKDKVDGTWDKPAPKCEYFNKYSSCPEPIVPGGYKIRGSTPYRHGDSVTFACKTNFSMNGNKSVWCQANNMWGPTRLPTCVSVFPLECPALPMIHNGHHTSENVGSIAPGLSVTYSCESGYLLVGEKIINCLSSGKWSAVPPTCEEARCKSLGRFPNGKVKEPPILRVGVTANFFCDEGYRLQGPPSSRCVIAGQGVAWTKMPVCSGGGGSLQCYNCPNPTADCKTAVNCSADFDACLITKAGLQVYNKCWKFEHCNFNDVATRLRENELTYYCCKKDLCNFNEQLEN
Q: Which inhibition of complement-mediated lysis of sensitized CHO cells by soluble protein in normal human serum (fold of wt CR2-CD59) does the source give for B1 here?
A: Its inhibition of complement-mediated lysis of sensitized CHO cells by soluble protein in normal human serum (fold of wt CR2-CD59) is 3.
